From paper doi:10.1101/683052

Target: dynein/ dynactin/ BicD2-S complex (human | human (endogenous in HEK293-T)) (UniProt Q14204)
Experiment: single-molecule TIRF colocalisation on microtubules

Chain of dynein/ dynactin/ BicD2-S complex (human | human (endogenous in HEK293-T)) (Q14204 whole entry, looked up, one chain of several): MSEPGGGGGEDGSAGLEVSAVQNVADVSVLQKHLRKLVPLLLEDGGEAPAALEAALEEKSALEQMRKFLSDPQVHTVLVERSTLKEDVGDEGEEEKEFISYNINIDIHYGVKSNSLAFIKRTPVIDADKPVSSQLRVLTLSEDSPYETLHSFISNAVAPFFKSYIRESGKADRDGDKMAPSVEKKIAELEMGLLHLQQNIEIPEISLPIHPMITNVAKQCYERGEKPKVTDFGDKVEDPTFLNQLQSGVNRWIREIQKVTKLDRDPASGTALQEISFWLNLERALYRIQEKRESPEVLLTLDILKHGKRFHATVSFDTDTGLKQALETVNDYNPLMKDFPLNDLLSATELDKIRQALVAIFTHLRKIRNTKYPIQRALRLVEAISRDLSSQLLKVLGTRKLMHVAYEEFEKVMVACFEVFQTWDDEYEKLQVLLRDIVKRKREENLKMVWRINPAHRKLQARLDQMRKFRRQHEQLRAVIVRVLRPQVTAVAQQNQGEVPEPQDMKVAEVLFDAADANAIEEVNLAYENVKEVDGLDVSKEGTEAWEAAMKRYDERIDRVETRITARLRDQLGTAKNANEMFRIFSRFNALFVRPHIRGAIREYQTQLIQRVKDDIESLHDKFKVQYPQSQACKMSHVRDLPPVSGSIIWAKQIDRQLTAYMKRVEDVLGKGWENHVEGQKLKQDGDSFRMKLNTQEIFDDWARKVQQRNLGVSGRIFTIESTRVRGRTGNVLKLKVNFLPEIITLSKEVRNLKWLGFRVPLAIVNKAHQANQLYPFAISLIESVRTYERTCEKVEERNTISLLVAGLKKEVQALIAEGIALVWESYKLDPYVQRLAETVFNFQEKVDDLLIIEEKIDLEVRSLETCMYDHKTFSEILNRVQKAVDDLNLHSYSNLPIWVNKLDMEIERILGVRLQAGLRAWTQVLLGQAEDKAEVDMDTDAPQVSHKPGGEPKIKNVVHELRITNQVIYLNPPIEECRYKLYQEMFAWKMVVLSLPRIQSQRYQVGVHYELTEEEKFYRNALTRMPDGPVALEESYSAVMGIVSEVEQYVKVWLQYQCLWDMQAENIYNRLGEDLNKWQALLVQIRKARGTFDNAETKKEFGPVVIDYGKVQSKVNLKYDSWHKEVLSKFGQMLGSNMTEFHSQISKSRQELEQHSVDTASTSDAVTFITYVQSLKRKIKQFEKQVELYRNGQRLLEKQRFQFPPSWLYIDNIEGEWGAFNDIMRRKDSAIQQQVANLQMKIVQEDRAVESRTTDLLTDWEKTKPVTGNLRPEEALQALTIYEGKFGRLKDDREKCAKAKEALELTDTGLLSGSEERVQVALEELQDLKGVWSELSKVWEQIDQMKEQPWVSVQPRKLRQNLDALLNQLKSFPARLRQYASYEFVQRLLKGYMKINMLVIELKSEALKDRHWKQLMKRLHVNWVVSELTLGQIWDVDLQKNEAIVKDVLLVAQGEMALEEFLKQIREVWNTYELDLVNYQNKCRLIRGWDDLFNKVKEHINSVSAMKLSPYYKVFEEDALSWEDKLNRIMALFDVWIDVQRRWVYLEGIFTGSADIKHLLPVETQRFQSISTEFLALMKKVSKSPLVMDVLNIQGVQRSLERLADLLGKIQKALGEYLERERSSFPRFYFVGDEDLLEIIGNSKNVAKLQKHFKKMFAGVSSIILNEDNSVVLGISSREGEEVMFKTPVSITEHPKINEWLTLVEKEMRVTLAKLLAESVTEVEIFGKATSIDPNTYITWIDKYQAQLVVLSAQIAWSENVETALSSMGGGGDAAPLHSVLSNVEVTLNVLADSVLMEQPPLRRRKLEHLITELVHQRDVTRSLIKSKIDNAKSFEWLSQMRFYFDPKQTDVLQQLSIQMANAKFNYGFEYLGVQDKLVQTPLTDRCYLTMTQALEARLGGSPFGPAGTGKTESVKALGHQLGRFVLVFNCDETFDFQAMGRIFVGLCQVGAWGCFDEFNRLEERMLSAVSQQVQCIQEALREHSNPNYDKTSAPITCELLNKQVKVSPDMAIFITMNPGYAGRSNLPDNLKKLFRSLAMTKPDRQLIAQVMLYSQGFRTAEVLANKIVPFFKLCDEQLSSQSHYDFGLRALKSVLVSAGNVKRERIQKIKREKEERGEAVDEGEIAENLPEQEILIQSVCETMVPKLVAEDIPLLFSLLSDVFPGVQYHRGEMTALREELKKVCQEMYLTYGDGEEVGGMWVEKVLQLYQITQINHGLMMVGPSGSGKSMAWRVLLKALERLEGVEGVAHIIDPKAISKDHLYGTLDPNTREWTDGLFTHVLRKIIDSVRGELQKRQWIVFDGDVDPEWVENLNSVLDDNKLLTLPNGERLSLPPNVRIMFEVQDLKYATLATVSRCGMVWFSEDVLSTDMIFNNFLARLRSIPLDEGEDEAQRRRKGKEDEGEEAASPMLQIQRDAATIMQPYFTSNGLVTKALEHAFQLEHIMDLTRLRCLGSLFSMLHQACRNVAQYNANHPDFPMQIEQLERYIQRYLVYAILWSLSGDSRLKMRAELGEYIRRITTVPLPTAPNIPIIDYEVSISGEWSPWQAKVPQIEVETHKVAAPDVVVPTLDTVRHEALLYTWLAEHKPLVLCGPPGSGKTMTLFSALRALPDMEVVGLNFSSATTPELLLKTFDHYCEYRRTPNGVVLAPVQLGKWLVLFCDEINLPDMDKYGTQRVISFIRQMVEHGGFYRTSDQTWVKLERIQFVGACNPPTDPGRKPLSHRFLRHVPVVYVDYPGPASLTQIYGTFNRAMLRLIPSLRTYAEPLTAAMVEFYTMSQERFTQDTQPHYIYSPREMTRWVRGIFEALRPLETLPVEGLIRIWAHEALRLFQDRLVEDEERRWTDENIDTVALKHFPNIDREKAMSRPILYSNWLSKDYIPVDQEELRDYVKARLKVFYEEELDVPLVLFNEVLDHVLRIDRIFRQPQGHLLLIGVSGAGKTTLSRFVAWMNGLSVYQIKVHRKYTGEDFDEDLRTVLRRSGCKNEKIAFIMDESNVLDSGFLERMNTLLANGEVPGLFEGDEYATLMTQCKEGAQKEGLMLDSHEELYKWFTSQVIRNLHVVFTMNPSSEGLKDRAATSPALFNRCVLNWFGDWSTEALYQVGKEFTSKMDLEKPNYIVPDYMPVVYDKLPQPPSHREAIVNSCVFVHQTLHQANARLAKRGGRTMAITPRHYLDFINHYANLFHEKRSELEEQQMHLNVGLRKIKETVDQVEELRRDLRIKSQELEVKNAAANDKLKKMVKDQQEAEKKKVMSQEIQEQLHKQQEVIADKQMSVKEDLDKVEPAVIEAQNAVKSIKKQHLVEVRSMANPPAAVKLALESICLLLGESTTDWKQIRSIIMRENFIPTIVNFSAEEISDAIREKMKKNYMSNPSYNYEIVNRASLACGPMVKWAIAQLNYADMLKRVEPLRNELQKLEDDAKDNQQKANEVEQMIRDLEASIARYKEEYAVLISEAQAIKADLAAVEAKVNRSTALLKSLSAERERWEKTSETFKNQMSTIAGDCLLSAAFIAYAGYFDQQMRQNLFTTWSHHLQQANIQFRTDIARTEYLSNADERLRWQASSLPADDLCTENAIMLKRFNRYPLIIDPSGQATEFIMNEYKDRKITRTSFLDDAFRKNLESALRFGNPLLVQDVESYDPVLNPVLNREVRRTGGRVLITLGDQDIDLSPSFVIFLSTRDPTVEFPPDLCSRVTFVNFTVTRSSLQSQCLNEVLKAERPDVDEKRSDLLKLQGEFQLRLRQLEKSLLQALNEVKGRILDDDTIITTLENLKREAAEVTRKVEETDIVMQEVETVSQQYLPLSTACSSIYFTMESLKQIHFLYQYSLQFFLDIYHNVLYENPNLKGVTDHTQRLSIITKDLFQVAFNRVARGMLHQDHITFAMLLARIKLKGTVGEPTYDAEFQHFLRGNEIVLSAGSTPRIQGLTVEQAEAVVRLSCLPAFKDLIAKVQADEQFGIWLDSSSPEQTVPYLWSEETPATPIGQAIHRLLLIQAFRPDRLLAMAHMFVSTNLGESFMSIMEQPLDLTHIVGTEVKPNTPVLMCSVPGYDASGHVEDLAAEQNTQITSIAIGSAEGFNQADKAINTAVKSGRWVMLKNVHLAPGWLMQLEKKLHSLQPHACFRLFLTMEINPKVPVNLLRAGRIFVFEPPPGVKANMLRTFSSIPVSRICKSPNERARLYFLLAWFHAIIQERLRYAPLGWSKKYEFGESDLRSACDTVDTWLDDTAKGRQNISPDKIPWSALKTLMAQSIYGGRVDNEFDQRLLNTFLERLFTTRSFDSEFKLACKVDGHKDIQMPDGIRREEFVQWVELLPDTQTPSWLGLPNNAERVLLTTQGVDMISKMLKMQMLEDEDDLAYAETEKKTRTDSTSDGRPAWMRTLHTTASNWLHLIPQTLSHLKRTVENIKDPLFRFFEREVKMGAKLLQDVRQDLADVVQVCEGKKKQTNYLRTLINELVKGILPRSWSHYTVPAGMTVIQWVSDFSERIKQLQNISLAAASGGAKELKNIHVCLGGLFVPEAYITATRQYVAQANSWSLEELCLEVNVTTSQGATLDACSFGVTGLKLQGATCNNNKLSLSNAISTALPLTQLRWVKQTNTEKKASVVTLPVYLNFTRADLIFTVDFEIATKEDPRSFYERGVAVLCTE

HaloTag-Lis1 (human full-length Lis1, PAFAH1B1) (from UniProt P43034 1-410) (natural protein)
percent of dynein runs that comigrated with Lis1: 16.8%
